This is an account of results in patent publication US10919953 (dated 2021).

In general, Kd refers to the equilibrium constant for the complex coming apart. A higher Kd goes with weaker binding.

Positions count from the first letter of the chain named. Like-named read-outs stand apart in the source and are kept apart here.

Holding throughout (test): SPR
A general note: SPR reads the build-up and loss of mass on a sensor chip optically.

Experiment [1] concerns the target T1, FcgRIa (human, UniProt P12314).
T1 chain: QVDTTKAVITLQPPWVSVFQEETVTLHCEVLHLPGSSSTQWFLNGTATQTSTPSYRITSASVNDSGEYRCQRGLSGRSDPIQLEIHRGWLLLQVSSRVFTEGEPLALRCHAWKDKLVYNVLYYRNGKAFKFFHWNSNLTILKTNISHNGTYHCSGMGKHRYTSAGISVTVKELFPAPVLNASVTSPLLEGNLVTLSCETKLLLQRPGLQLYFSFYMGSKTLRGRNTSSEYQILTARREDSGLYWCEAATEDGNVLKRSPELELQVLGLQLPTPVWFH

Experiment [2] addresses T2, FcgRIIaR (human, UniProt P12318).
T2 chain: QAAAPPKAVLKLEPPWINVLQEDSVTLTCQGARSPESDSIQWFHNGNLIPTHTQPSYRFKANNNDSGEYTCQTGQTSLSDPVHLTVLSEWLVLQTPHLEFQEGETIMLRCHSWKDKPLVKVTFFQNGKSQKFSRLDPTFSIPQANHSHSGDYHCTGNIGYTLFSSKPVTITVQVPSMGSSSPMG

Experiment [3] has as its target T3, FcgRIIb (human, UniProt P31994).
T3 chain: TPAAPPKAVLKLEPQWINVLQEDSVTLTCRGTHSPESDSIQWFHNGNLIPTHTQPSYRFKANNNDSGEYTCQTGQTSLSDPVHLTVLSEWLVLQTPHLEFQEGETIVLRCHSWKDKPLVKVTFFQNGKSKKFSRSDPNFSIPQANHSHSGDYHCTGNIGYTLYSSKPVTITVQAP

For experiment [4], the target named is T1, FcgRIa.
Experiment [5] concerns the target T2, FcgRIIaR.
Experiment [6] addresses T3, FcgRIIb.
Experiment [7] concerns the target T4, FcgRIIaH (human, UniProt P12318).
T4 chain: T2 chain with R134H

The target of experiment [8] is T3, FcgRIIb.
The target of experiment [9] is T1, FcgRIa.
The target in experiment [10] is T2, FcgRIIaR.
For experiment [11], the target named is T3, FcgRIIb.
Experiment [12] concerns the target T1, FcgRIa.

B1: IL6R-BP257/IL6R-L (antibody)
chain 1: QVQLQESGPGLVKPSETLSLTCAVSGHSISHDHAWSWVRQPPGEGLEWIGFISYSGITNYNPSLQGRVTISRDNSKNTLYLQMNSLRAEDTAVYYCARSLARTTAMDYWGEGTLVTVSSASTKGPEVFPLAPSSKSTSGGTAALGCLVKDYFPEPVTVSWNSGALTSGVHTFPAVLQSSGLYSLSSVVTVPSSSLGTQTYICNVNHKPSNTKVDKKVEPKSCDKTHTCPPCPAPDLLGDDSVFLFPPKPKDTLMISRTPEVTCVVVDVSDEDGEVKFNWYVDGVEVHNAKTKPREEQYNSTYRVVSVLTVLHQDWLNGKEYKCKVSNKALPRPIEKTISKAKGQPREPQVYTLPPSRDELTKNQVSLTCLVKGFYPSDIAVEWESNGQPENNYKTTPPVLDSDGSFFLYSKLTVDKSRWQQGNVFSCSVMHEALHNHYTQESLSLSP
chain 2: not shown
Regarding B1, the Kd in experiment [1] was found to be 0.31 nM; in experiment [2], 1300 nM; in [3] it was 430 nM.

B2: IL6R-AP029/IL6R-BP408/IL6R-L (antibody)
chain 1: B1 chain 1 with E126S, D270E, Y298D, D358K, H437R, E441K
chain 2: B1 chain 1 with E126S, L237Q, D270E, Y298D
chain 3: not shown
Consider B2, for which the dissociation constant (Kd) was found to be 20 nM in experiment [4], 860 nM in experiment [5] and 26 nM in [6].

B3: IL6R-AP009/IL6R-BP260/IL6R-L (antibody)
chain 1: B1 chain 1 with E126S, Y298D, D358K, H437R, E441K
chain 2: B1 chain 1 with Y298D
chain 3: not shown
For B3, the Kd in experiment [1] amounted to 1.7 nM; in experiment [7] it was 5400 nM; in [2], 140 nM; in experiment [3] it was 4.2 nM.

B4: IL6R-BP228/IL6R-L (antibody)
chain 1: B1 chain 1 with E126S, D235E, L236Y, S269Q, K328D
chain 2: not shown
With B4, binding in experiment [8] was characterised by a dissociation constant (Kd) of 40 nM.

B5: IL6R-BP259/IL6R-L (antibody)
chain 1: B1 chain 1 with E126D, Y298D
chain 2: not shown
On to B5, for which the figures for the Kd in [1], in experiment [2] and in experiment [3] were 3.1 nM, 860 nM and 110 nM, respectively.

B6: IL6R-BP256/IL6R-L (antibody)
chain 1: B1 chain 1 with E126D
chain 2: not shown
Regarding B6, the Kd was 2 nM in experiment [1], 730 nM in [2] and 87 nM in experiment [3].

B7: IL6R-BP419/IL6R-L (antibody)
chain 1: B1 chain 1 with E126S, L237F, D270E, Y298D
chain 2: not shown
For the molecule B7, the Kd is 40 nM in [4], 830 nM in experiment [5] and 26 nM in experiment [6].

B8: IL6R-BP225/IL6R-L (antibody)
chain 1: B1 chain 1 with E126S, D235E, L236Y, D270H, G273P, K328D
chain 2: not shown
As for B8, binding in experiment [9] was put at a Kd of 65 nM.

B9: IL6R-BP339/IL6R-L (antibody)
chain 1: B1 chain 1 with E126S, V266M, D270E, R332A
chain 2: not shown
In the case of B9, the values for the Kd in experiment [10], in experiment [11] and in [12] were 1400 nM, 130 nM and 4.6 nM, respectively.

B10: IL6R-BP260/IL6R-L (antibody)
chain 1: B1 chain 1 with Y298D
chain 2: not shown
As for B10, the Kd turned out to be 0.31 nM in experiment [1] and 380 nM in [3].

B11: IL6R-BP246/IL6R-L (antibody)
chain 1: B1 chain 1 with E126S, S269Q, Y298D, K328A
chain 2: not shown
With B11, binding in experiment [9] was characterised by a dissociation constant (Kd) of 8 nM.

B12: IL6R-BP233/IL6R-L (antibody)
chain 1: B1 chain 1 with E126S, D235E, L236Y, D270H, R332K
chain 2: not shown
For the molecule B12, the Kd in [9] was determined as 70 nM.

B13: IL6R-BP333/IL6R-L (antibody)
chain 1: B1 chain 1 with E126S, V266F, D270E, R332A
chain 2: not shown
Take B13: the Kd was 1500 nM in experiment [10], 120 nM in experiment [11] and 9.1 nM in [12].

B14: IL6R-BP404/IL6R-L (antibody)
chain 1: B1 chain 1 with E126S, L236Y, D270E, Y298D
chain 2: not shown
As to B14, the equilibrium dissociation constant (Kd) in experiment [4] was found to be 10 nM; in [5], 360 nM; in [6], 11 nM.

B15: IL6R-BP338/IL6R-L (antibody)
chain 1: B1 chain 1 with E126S, V266L, D270E, R332A
chain 2: not shown
In the case of B15, the values for the Kd in [10], in [11] and in experiment [12] were 2200 nM, 150 nM and 15 nM, respectively.

B16: IL6R-AP002/IL6R-BP257/IL6R-L (antibody)
chain 1: B1 chain 1 with E126S, D358K, H437R, E441K
chain 2: B1 chain 1
chain 3: not shown
B16: the Kd turned out to be 1.9 nM in experiment [1], 4900 nM in experiment [7], 130 nM in experiment [2] and 4.7 nM in experiment [3].

B17: IL6R-BP408/IL6R-L (antibody)
chain 1: B1 chain 1 with E126S, L237Q, D270E, Y298D
chain 2: not shown
As to B17, the Kd in experiment [4] turned out to be 140 nM; in [5], 34000 nM; in experiment [6], 720 nM.

B18: IL6R-BP249/IL6R-L (antibody)
chain 1: B1 chain 1 with E126S, L236Y, Y298D
chain 2: not shown
B18: the Kd in [9] was found to be 7 nM.

B19: IL6R-BP237/IL6R-L (antibody)
chain 1: B1 chain 1 with E126S, L236Y, S269Q, Y298D, K328A, R332K
chain 2: not shown
As for B19, the Kd in experiment [8] is 100 nM.

B20: IL6R-AP029/IL6R-BP407/IL6R-L (antibody)
chain 1: B1 chain 1 with E126S, D270E, Y298D, D358K, H437R, E441K
chain 2: B1 chain 1 with E126S, L237D, D270E, Y298D
chain 3: not shown
Turning to B20, the Kd in experiment [4] was 13 nM; in experiment [5] it was 630 nM; in [6], 19 nM.

B21: IL6R-BP267/IL6R-L (antibody)
chain 1: B1 chain 1 with E126S, D270E, R332A
chain 2: not shown
The molecule B21 returned a Kd in [12] of 4 nM.

B22: IL6R-BP239/IL6R-L (antibody)
chain 1: B1 chain 1 with E126S, L236Y, S269Q, Y298D, K328A
chain 2: not shown
B22 returned a Kd in [8] of 60 nM.

B23: IL6R-AP029/IL6R-BP410/IL6R-L (antibody)
chain 1: B1 chain 1 with E126S, D270E, Y298D, D358K, H437R, E441K
chain 2: B1 chain 1 with E126S, L237T, D270E, Y298D
chain 3: not shown
Regarding B23, the Kd stood at 17 nM in experiment [4], 660 nM in [5] and 22 nM in experiment [6].

B24: IL6R-BP243/IL6R-L (antibody)
chain 1: B1 chain 1 with E126S, L236Y
chain 2: not shown
With B24, in experiment [9], the Kd was found to be 3 nM.

B25: IL6R-BP264/IL6R-L (antibody)
chain 1: B1 chain 1 with E126S, D270E, Y298D
chain 2: not shown
Consider B25, for which the Kd in experiment [4] was determined as 7.4 nM.

B26: IL6R-BP208/IL6R-L (antibody)
chain 1: B1 chain 1 with E126S
chain 2: not shown
B26 came in with a Kd in [2] of 850 nM.

B27: IL6R-BP300/IL6R-L (antibody)
chain 1: B1 chain 1 with E126S, V264I, D270E, R332A
chain 2: not shown
For B27, the dissociation constant (Kd) is 690 nM in [10], 58 nM in [11] and 9.6 nM in experiment [12].

B28: IL6R-AP002/IL6R-BP256/IL6R-L (antibody)
chain 1: B1 chain 1 with E126S, D358K, H437R, E441K
chain 2: B1 chain 1 with E126D
chain 3: not shown
Consider B28, for which the Kd in experiment [1] worked out at 3.6 nM; in [7] it was 4200 nM; in [2] it was 140 nM; in experiment [3], 4.1 nM.

B29: IL6R-AP009/IL6R-BP259/IL6R-L (antibody)
chain 1: B1 chain 1 with E126S, Y298D, D358K, H437R, E441K
chain 2: B1 chain 1 with E126D, Y298D
chain 3: not shown
On to B29, for which the Kd in experiment [1] worked out at 3.5 nM; in [7] it was 6600 nM; in [2], 190 nM; in [3], 3.9 nM.

B30: IL6R-BP220/IL6R-L (antibody)
chain 1: B1 chain 1 with E126S, Y298D, R332K
chain 2: not shown
Take B30: the dissociation constant Kd in [9] came to 20 nM.

B31: IL6R-AP029/IL6R-BP409/IL6R-L (antibody)
chain 1: B1 chain 1 with E126S, D270E, Y298D, D358K, H437R, E441K
chain 2: B1 chain 1 with E126S, L237E, D270E, Y298D
chain 3: not shown
Turning to B31, the Kd in [4] was 19 nM; in experiment [5], 630 nM; in experiment [6] it was 15 nM.
